Article PMC11533912 (Journal of Nuclear Medicine, 2024)
“Also recorded” adds a separate entry of the source.

Key:
[1] = Biodistribution at different specific activity (28, 140, 280 ng peptide); assay type: in vivo, PC-3 tumor-bearing mice
Protocol: For all tumor studies, 1 × 10^6 PC-3 cells were implanted subcutaneously into the right flank of each mouse in a mixture of equal volumes of HC-Matrigel (high concentration; Corning) and RPMI medium (Gibco) and grown to a volume of about 200–300 mm^3.
PC-3 tumors were grown in male mice until an approximate tumor volume of 300 mm^3 was reached. […] The background was automatically subtracted from the counts. A standard was also used for decay correction, and the percent injected dose (%ID) per gram of tissue was calculated for each organ collected.
FIGURE 3. In vivo distribution of [^212Pb]Pb-DOTAM-GRPR1. (A) In athymic nude male mice carrying subcutaneous PC-3 tumors, 370 kBq of drug were administered and organs were collected from 5 mice per time point: 1, 4, and 24 h after injection. (B) At different specific activity in PC-3 tumor-bearing mice, 370 kBq per 28, 140, or 280 ng of DOTAM-GRPR1 were administered and organs were collected from 5 mice per time point: 1, 4, and 24 h after injection. Tissue uptake is expressed as %ID/g ± SD (n = 5). All tissues with uptake below 2% at 1 h were excluded from graph. ***P = 0.00013 between 280 ng of pancreas and 28 ng of pancreas.

[2] = in vivo
[3] = Dosimetry: absorbed radiation dose calculation from mouse biodistribution; details: for Estimated absorbed dose, pancreas / Estimated absorbed dose, red marrow / Estimated absorbed dose, urinary bladder wall / Estimated absorbed dose, kidneys / Estimated absorbed dose, spleen / Estimated absorbed dose, liver / Estimated absorbed dose, heart wall / Estimated absorbed dose, stomach (stem cell layer) / Estimated absorbed dose, lungs (alveolar–interstitial): RBE 5, female mice; for Estimated absorbed dose, red marrow: dose limit 2; for Estimated absorbed dose, urinary bladder wall: dose limit 20; for Estimated absorbed dose, kidneys: dose limit 23; for Estimated absorbed dose, spleen: dose limit 26; for Estimated absorbed dose, liver: dose limit 30; for Estimated absorbed dose, heart wall / Estimated absorbed dose, stomach (stem cell layer): dose limit 45; for Estimated absorbed dose, lungs (alveolar–interstitial): dose limit 65; for Administered activity at which 23-Gy kidney threshold is reached: female mice as printed, projected mean absorbed dose by modeling
Protocol: Physical decay was used to extrapolate after the last time point. The human equivalent time-integrated activity coefficient for both sexes was calculated by extrapolating mouse biodistribution data to human using standard methods assuming that tissue concentration divided by whole-body concentration in mice is the same as that in humans.
The linear energy transfer of α-particles is approximately 400 times greater than that of photons and β-particles. This difference in energy deposition density leads to fundamentally different biologic effects. Accordingly, the absorbed doses for these different emission types should be weighted appropriately to reflect likely biologic effects. The relative biological effectiveness (RBE) is the appropriate weighting factor for deterministic effects such as tissue toxicity and tumor kill efficacy. The tissue-absorbed doses (with RBE values of 3 and 5) for ^212Pb compounds were calculated.

[4] = in vivo; remark: listed apart in the source
[5] = Radio-HPLC stability/oxidation of drug product with and without excipients; assay type: physicochemical
Protocol: DOTAM-GRPR1 (C77H119N23O17, Fig. 1) was manufactured by Macrocyclics using Fmoc solid-phase peptide synthesis. The peptide was isolated via reverse-phase high-performance liquid chromatography. Chelation was achieved by adding ^212Pb in ammonium acetate (Sigma-Aldrich) to DOTAM-GRPR1 alone or in the presence of 5% ethanol (Spectrum Chemical), up to 30 mM ascorbic acid (Honeywell), and 0.02% polysorbate 80 (J.T. Baker). Experiments were conducted for 10 min at either room temperature or 50°C.
Fractions were collected from the column every 6–10 s for up to 10 min and then analyzed for radiometric detection using an automatic γ-counter (Perkin Elmer Wizard^2 2470).
FIGURE 4. Radio–high-performance liquid chromatography showing optimized formulation conditions compared with no excipients added to chelation reaction. When chelation occurs with just ^212Pb and peptide, oxidation is visible at time of 0 h with percent main peak of 91% (A), which becomes unquantifiable at time of 24 h (B). However, with addition of ethanol, ascorbic acid, and polysorbate 80, percent main peak is 96% at time of 0 h (C) and remains high at 94% after 24 h (D). CPM = counts per minute; N/A = not applicable; T = time. […]

[6] = Biodistribution in tumor-free CD-1 mice; assay type: in vivo
[7] = Toxicity (dose escalation) study in tumor-free nude mice
Protocol: Control mice received buffer only. Animals were weighed 3 times per week and monitored daily for signs of pain or distress over a 4-wk period after the last injection. Blood was sampled via the submandibular vein using potassium–ethylenediaminetetraacetic acid capillaries and tubes (Greiner Bio-One), and complete cell blood counts were performed using a VETSCAN HM5 hematology analyzer (Abaxis/Zoetis). Animals were euthanized at the scheduled termination or when the termination criteria were met.
Mice were euthanized when tumor volumes reached 1,000 mm^3 (length × width × height) or other predetermined termination criteria were met (weight loss > 15% for 2 consecutive days or 20% weight loss from initial weight, serious bleeding, necrosis or ulceration of the tumor, scruffiness or lack of grooming over 5 d, lethargy over 3 d, weakness/balance issues over 5 d, hunchback appearance, diarrhea, or hypothermia).

[8] = 370 kBq per 28, 140 or 280 ng DOTAM-GRPR1, PC-3 tumor-bearing mice

CC(C)C[C@H](NC(=O)C[C@H](O)[C@H](CC(C)C)NC(=O)[C@H](Cc1c[nH]cn1)NC(=O)CNC(=O)[C@@H](NC(=O)[C@H](C)NC(=O)[C@H](Cc1c[nH]c2ccccc12)NC(=O)[C@H](CCC(N)=O)NC(=O)[C@@H](Cc1ccccc1)NC(=O)CCNC(=O)CCNC(=O)CN1CCN(CC(N)=O)CCN(CC(N)=O)CCN(CC(N)=O)CC1)C(C)C)C(N)=O [[^212Pb]Pb-DOTAM-GRPR1, metal not drawn]
Effect of low specific activity on tumor uptake [1, 8]: did not negatively impact tumor uptake
Effect of lowering specific activity on off-target accumulation [1, 8]: low specific activity reduced off-target accumulation; also recorded: further reduced off-target accumulation, especially in the pancreas
Reduction of pancreatic uptake on increasing peptide amount from 28 to 280 ng ([1]; 370 kBq per 28 vs 280 ng DOTAM-GRPR1, PC-3 tumor-bearing mice, n = 5 per time point, P = 0.00013): about 30%
Effect of renal blockers on kidney retention [2]: neither agent reduced the kidney retention
Radiation type contribution to total absorbed dose [3]: α-radiation comprised most of the total absorbed dose
Estimated absorbed dose, pancreas ([3]; 0.111 GBq (3 mCi)): 0.287 grays
Estimated absorbed dose, red marrow ([3]; 0.111 GBq (3 mCi)): 0.001 grays
Estimated absorbed dose, urinary bladder wall ([3]; 0.111 GBq (3 mCi)): 0.021 grays
Estimated absorbed dose, kidneys ([3]; 0.111 GBq (3 mCi)): 0.308 grays
Estimated absorbed dose, spleen ([3]; 0.111 GBq (3 mCi)): 0.018 grays
Estimated absorbed dose, liver ([3]; 0.111 GBq (3 mCi)): 0.109 grays
Estimated absorbed dose, heart wall ([3]; 0.111 GBq (3 mCi)): 0.007 grays
Estimated absorbed dose, stomach (stem cell layer) ([3]; 0.111 GBq (3 mCi)): 0.044 grays
Estimated absorbed dose, lungs (alveolar–interstitial) ([3]; 0.111 GBq (3 mCi)): 0.022 grays
Estimated absorbed dose, pancreas ([3]; 0.555 GBq (15 mCi)): 1.434 grays
Estimated absorbed dose, red marrow ([3]; 0.555 GBq (15 mCi)): 0.004 grays
Estimated absorbed dose, urinary bladder wall ([3]; 0.555 GBq (15 mCi)): 0.103 grays
Estimated absorbed dose, kidneys ([3]; 0.555 GBq (15 mCi)): 1.540 grays
Estimated absorbed dose, spleen ([3]; 0.555 GBq (15 mCi)): 0.091 grays
Estimated absorbed dose, liver ([3]; 0.555 GBq (15 mCi)): 0.543 grays
Estimated absorbed dose, heart wall ([3]; 0.555 GBq (15 mCi)): 0.036 grays
Estimated absorbed dose, stomach (stem cell layer) ([3]; 0.555 GBq (15 mCi)): 0.219 grays
Estimated absorbed dose, lungs (alveolar–interstitial) ([3]; 0.555 GBq (15 mCi)): 0.108 grays
Estimated absorbed dose, pancreas ([3]; 1.110 GBq (30 mCi)): 2.867 grays
Estimated absorbed dose, red marrow ([3]; 1.110 GBq (30 mCi)): 0.008 grays
Estimated absorbed dose, urinary bladder wall ([3]; 1.110 GBq (30 mCi)): 0.206 grays
Estimated absorbed dose, kidneys ([3]; 1.110 GBq (30 mCi)): 3.080 grays
Estimated absorbed dose, spleen ([3]; 1.110 GBq (30 mCi)): 0.183 grays
Estimated absorbed dose, liver ([3]; 1.110 GBq (30 mCi)): 1.086 grays
Estimated absorbed dose, heart wall ([3]; 1.110 GBq (30 mCi)): 0.071 grays
Estimated absorbed dose, stomach (stem cell layer) ([3]; 1.110 GBq (30 mCi)): 0.438 grays
Estimated absorbed dose, lungs (alveolar–interstitial) ([3]; 1.110 GBq (30 mCi)): 0.216 grays
Dose-limiting organ ([3]; calculated mean effective absorbed dose): kidney as the dose-limiting organ; also recorded: the kidneys were shown to be dose-limiting
Administered activity at which 23-Gy kidney threshold is reached ([3]; RBE 3): 13.6 GBq
Administered activity at which 23-Gy kidney threshold is reached ([3]; RBE 5): 8.3 GBq
Organs with highest absorbed doses ([3]; male and female mice): the kidneys and pancreas revealed the highest doses for both male and female animals; also recorded: The kidneys and pancreas received the highest dose
Estimated absorbed dose, pancreas ([3]; maximum 8.29 GBq (224.05 mCi)): 21.42 grays
Estimated absorbed dose, red marrow ([3]; maximum 8.29 GBq (224.05 mCi)): 0.06 grays
Estimated absorbed dose, urinary bladder wall ([3]; maximum 8.29 GBq (224.05 mCi)): 1.54 grays
Estimated absorbed dose, kidneys ([3]; maximum 8.29 GBq (224.05 mCi)): 23.00 grays
Estimated absorbed dose, spleen ([3]; maximum 8.29 GBq (224.05 mCi)): 1.37 grays
Estimated absorbed dose, liver ([3]; maximum 8.29 GBq (224.05 mCi)): 8.11 grays
Estimated absorbed dose, heart wall ([3]; maximum 8.29 GBq (224.05 mCi)): 0.53 grays
Estimated absorbed dose, stomach (stem cell layer) ([3]; maximum 8.29 GBq (224.05 mCi)): 3.27 grays
Estimated absorbed dose, lungs (alveolar–interstitial) ([3]; maximum 8.29 GBq (224.05 mCi)): 1.61 grays
Route of excretion [4]: predominantly renal route of excretion
Stability in optimized chelation formulation [5]: increased the stability of the drug well beyond 24 h
Pancreas and kidney accumulation at 24 h ([6]; 24 h after injection, pancreas and kidneys, strain not clearly stated): significantly less accumulation by 24 h after injection
tissue uptake at 4 h ([6]; mouse, all tissues, intravenous, 4 h after drug administration, tumor-free CD-1 mice, 'well below'): < 10 %ID/g
Nontarget uptake ranking ([6]; pancreas and kidneys, strain not clearly stated): The pancreas and kidneys showed the highest nontarget uptake
Biodistribution profile / accumulation in normal organs ([6]; tumor-free CD-1 mice): did not reveal any unexpected accumulation in normal organs
Hematologic toxicity or weight loss ([7]; 1,665 kBq, 30 d, athymic nude male mice): no hematologic toxicity or weight loss
Survival in acute toxicity study ([7]; 1,665 kBq, full 30-d period, athymic nude male mice): all animals survived for the full 30-d period
Histopathologic examination ([7]; all groups, male athymic nude mice): all groups were essentially within the normal limits
Tolerability / signs of radiation or lead injury ([7]; doses used, 370–1,665 kBq single or 3 × 370 or 555 kBq, male athymic nude mice): well tolerated at the doses used, with no signs of radiation or lead injury
Body weight loss ([7]; highest dose: single 1,665 kBq or 3 fractionated doses of 555 kBq, tumor-free nude male mice): body weight loss was minimal after administration and was followed by body weight gain
Kidneys, gastrointestinal mucosa, bone marrow and other organs ([7]; histopathology, male athymic nude mice): unremarkable
Toxic dose ([7]; male athymic nude mice, intravenous): more than 1,665 kBq
Nontoxic dose ([7]; up to, mice, intravenous): up to 1,665 kBq
